This passage reports stoichiometry N results from paper PMC8770708.

Several values for one entry are separate records, joined by “and”; a condition that tells them apart may be missing. Equal values may be shown once.

Experiment [1] addresses TraK, VirB9-like subunit of the pED208-encoded T4SS (IncFV plasmid pED208 (carried in E. coli)). The experiment is described as follows: cryo-EM structure; OMCC purified from E. coli MC4100(pED208-traB_(Strep4)) (WT) by StrepTrap and Superdex 200 in 50 mM Tris-HCl pH 8, 200 mM NaCl, 1 mM DTT, 1 mM EDTA, 0.06% DM-NPG, 0.1% digitonin; C1, C13 and C17 reconstructions.
For experiment [2], the target named is TraV, VirB7-like lipoprotein subunit of the pED208-encoded T4SS (IncFV plasmid pED208 (carried in E. coli)). The description is as above.
In experiment [3] the target is TraB with a C-terminal double twin-Strep tag (TraB_(Strep4)), VirB10-like subunit of the pED208-encoded T4SS (IncFV plasmid pED208 (carried in E. coli)). The experiment in a line: cryo-EM structure; OMCC purified in the same way from E. coli BL21(DE3, pKBV) producing only TraV, TraK and TraB_(Strep4); C13 reconstruction of the ORC, C17 and C16 reconstructions of the CC.

Experiment [4] has the same target. The experiment in a line: cryo-EM structure; OMCC purified from E. coli MC4100(pED208-traB_(Strep4)) (WT) by StrepTrap and Superdex 200 in 50 mM Tris-HCl pH 8, 200 mM NaCl, 1 mM DTT, 1 mM EDTA, 0.06% DM-NPG, 0.1% digitonin; C1, C13 and C17 reconstructions.

As to “TraK, VirB9-like subunit of the pED208-encoded T4SS (natural protein)”, the stoichiometry N in experiment [1] is 26 copies. In the case of “TraV, VirB7-like lipoprotein subunit of the pED208-encoded T4SS (natural protein)”, in experiment [2], the stoichiometry N was 26 copies. Turning to “TraB with a C-terminal double twin-Strep tag (TraB_(Strep4)), VirB10-like subunit of the pED208-encoded T4SS (natural protein)”, the stoichiometry N in experiment [3] is 16 and 17; in experiment [4] it was 17 copies.

Broadly, the stoichiometry N is the number of molecules, sites or subunits per partner or assembly.
